The results in this text go back to publication PMC9277888, “The testis-specific E3 ubiquitin ligase RNF133 is required for fecundity in mice” (BMC Biology, 2022).

The target of one assay is T1, human HA-UBE2J1 (human, UniProt Q9Y385 1-318).
T1 construct: E2 ubiquitin-conjugating enzyme UBE2J1, human, full-length open reading frame; also called pCAG-humanUBE2J1; source: HEK293 cells, transfected (pCAG1.1, Lipofectamine 3000), in lysate; not shown: HA, N-terminal, kept
T1 sequence (looked up): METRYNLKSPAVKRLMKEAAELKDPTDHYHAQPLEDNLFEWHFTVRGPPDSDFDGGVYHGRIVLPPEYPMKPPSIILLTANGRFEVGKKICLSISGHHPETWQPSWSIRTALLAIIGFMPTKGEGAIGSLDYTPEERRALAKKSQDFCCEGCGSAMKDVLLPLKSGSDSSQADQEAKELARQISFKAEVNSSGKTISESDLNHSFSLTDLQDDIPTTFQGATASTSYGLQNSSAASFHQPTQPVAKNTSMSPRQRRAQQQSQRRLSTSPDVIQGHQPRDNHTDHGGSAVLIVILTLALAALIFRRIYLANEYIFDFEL
The assay is described as follows: co-IP; HEK293 cells co-transfected with FLAG-tagged E3 and HA-tagged E2; lysed by sonication in Pierce IP buffer (25 mM Tris-HCl pH 7.4, 150 mM NaCl, 1 mM EDTA, 1% NP-40, 5% glycerol); anti-HA magnetic beads, 4 C, 1 h; washed with IP buffer with 2 mM DTT; immunoblot with anti-FLAG; band intensities by ImageJ (IP lane to input lane). (Immunoblotting shows a protein as a band on a membrane.)

The target of the next assay is T2, mouse HA-UBE2J1 (mouse, UniProt Q9JJZ4 1-318).
T2 construct: E2 ubiquitin-conjugating enzyme UBE2J1, mouse, full-length open reading frame; also called pCAG-mouseUbe2J1; source: HEK293 cells, transfected (pCAG1.1, Lipofectamine 3000), in lysate; not shown: HA, N-terminal, kept
T2 sequence (looked up): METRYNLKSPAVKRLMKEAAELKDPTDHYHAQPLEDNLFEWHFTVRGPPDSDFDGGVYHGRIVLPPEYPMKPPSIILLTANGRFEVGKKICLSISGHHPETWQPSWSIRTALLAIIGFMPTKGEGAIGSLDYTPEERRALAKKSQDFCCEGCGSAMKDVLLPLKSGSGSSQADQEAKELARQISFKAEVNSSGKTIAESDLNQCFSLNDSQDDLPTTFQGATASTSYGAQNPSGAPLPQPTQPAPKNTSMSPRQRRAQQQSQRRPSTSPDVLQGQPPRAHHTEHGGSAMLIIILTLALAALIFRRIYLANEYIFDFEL
The description is as above. The settings on record: partners not purified.

Read-outs that look alike come from different tables or passages of the source.

Turning to “human RNF133-mutant-FLAG (RING finger domain deleted) (from UniProt Q8WVZ7 1-376) (enzyme)”, the IP:input ratio (band intensity) with human HA-UBE2J1 is 0.24.

B1: mouse RNF133-FLAG (RING finger protein 133) (enzyme, UniProt Q14B02 1-382, looked up)
chain: MNPLQTSTWQNQAPSFWLLRFSFIWLVSQKCCTASAVWTAYMNISFHVGNRMLSELGETGVFGRSSILKRVAGVVVPPEGKIQNACDPNTTFILPRNKEPWIALIERGGCAFTQKIKVASEHGARGVIIYNFPGTGNQVFPMSHQAFEDIVVVMIGNIKGMEILHLIRKGVHVTVMVEVGRKHVIWLNHYFVSFMIVTTATLAYFTFYHIRRLWVARIENRRWKRLTRELKKAFGQLQVRVLKEGDEEVNPNADSCVICFEAYKPNEIVRILTCKHFFHKNCIDPWILAHGTCPMCKCDILKALGIQMDIEDGTDSLQVLMSNELPGTLSPVEEETNYELPPARTSSKVTHVQEHPTSSANAGSQPPEAEETSHPSHGQQVL
notes: also called mouse RNF133-WT; pCAG-mouseRnf133; source: HEK293 cells, transfected (pCAG1.1, Lipofectamine 3000), in lysate; not shown: FLAG, C-terminal, kept
Regarding B1, the “IP:input ratio (band intensity)” value with mouse HA-UBE2J1 turned out to be 3.95.

B2: human RNF133-FLAG (RING finger protein 133) (enzyme, UniProt Q8WVZ7 1-376, looked up)
chain: MHLLKVGTWRNNTASSWLMKFSVLWLVSQNCCRASVVWMAYMNISFHVGNHVLSELGETGVFGRSSTLKRVAGVIVPPEGKIQNACNPNTIFSRSKYSETWLALIERGGCTFTQKIKVATEKGASGVIIYNVPGTGNQVFPMFHQAFEDVVVVMIGNLKGTEIFHLIKKGVLITAVVEVGRKHIIWMNHYLVSFVIVTTATLAYFIFYHIHRLCLARIQNRRWQRLTTDLQNTFGQLQLRVVKEGDEEINPNGDSCVICFERYKPNDIVRILTCKHFFHKNCIDPWILPHGTCPICKCDILKVLGIQVVVENGTEPLQVLMSNELPETLSPSEEETNNEVSPAGTSDKVIHVEENPTSQNNDIQPHSVVEDVHPSP
notes: also called human RNF133-WT; RNF133 wild-type; source: HEK293 cells, transfected (pCAG1.1, Lipofectamine 3000), in lysate; not shown: FLAG, C-terminal, kept
For B2, the “IP:input ratio (band intensity)” value in the assay with human HA-UBE2J1 (partners not purified) was determined as 1.74.
